{"source": "paper PMC12137749", "about": "(Nature Communications, 2025)", "key": {"[1]": {"biological_target": "the molecule itself"}, "cryo-EM structure": {"biological_target": "the molecule itself", "test": "cryo-EM structure"}}, "note": "Read-outs that look alike come from different tables or passages of the source."}
{"protein": "full-length MPXV E5 (mpox virus helicase-primase E5), wild type (enzyme) MDAAIRGNDVIFVLKTIGVPSACRQNEDPRFVEAFKCDELERYIDNNPECTLFESLRDEEAYSIVRIFMDVDLDACLDEIDYLTAIQDFIIEVSNCVARFAFTECGAIHENVIKSMRSNFSLTKSTNRDKTSFHIIFLDTYTTMDTLIAMKRTLLELSRSSENPLTRSIDTAVYRRKTTLRVVGTRKNPNCDTIHVMQPPHDNIEDYLFTYVDMNNNSYYFSLQRRLEDLVPDKLWEPGFISFEDAIKRVSKIFINSIINFNDLDENNFTTVPLVIDYVTPCALCKKRSHKHPHQLSLENGAIRIYKTGNPHSCKVKIVPLDGNKLFNIAQRILDTNSVLLTERGDHIVWINNSWKFNSEEPLITKLILSIRHQLPKEYSSELLCPRKRKTVEANIRDMLVDSVETDTYPDKLPFKNGVLDLVDGMFYSGDDAKKYTCTVSTGFKFDDTKFVEDSPEMEELMNIINDIQPLTDENKKNRELYEKTLSSCLCGATKGCLTFFFGETATGKSTTKRLLKSAIGDLFVETGQTILTDVLDKGPNPFIANMHLKRSVFCSELPDFACSGSKKIRSDNIKKLTEPCVIGRPCFSNKINNRNHATIIIDTNYKPVFDRIDNALMRRIAVVRFRTHFSQPSGREAAENNDAYDKVKLLDEGLDGKIQNNRYRFAFLYLLVKWYKKYHIPIMKLYPTPEEIPDFAFYLKIGTLLVSSSVKHIPLMTDLSKKGYILYDNVVTLPLTTFQQKISKYFNSRLFGHDIESFINRHKKFANVSDEYLQYIFIEDISSP", "values": [{"measurement": "stoichiometry N", "setting": "[1]", "value": 6}, {"measurement": "stoichiometry N", "setting": "cryo-EM structure", "value": 12}]}
